Reference: article doi:10.1101/2022.03.21.485092

Biological target: hnRNP A1 spin-labelled at 231 (Homo sapiens, UniProt P09651-2 1-320, M1G;C43S;C175A;S231C)
Test: CW EPR

CCAGCAUUAUGAAAAUGA (ssRNA) [RNAga (3' AG motif mutated)]
binding result: binds
